Experiment [1] concerns the target T1, human neonatal Fc receptor FcRn/β2m, soluble recombinant (human, UniProt P55899 24-297; P61769 21-119, alexa-488 label (Examples 2-4); minimal chemical biotinylation with Sulfo-NHS-LC-LC-Biotin (Examples 5-6)).
T1 construct: Heterodimer; extracellular domain is inferred; also called hFcRn/β2M; hsFcRn
In words: flow cytometry, labelled FcRn on CHO-displayed HSA, pH 5.4. The source says: (§1) Background fluorescence due to non-specific binding of the labelled FcRn to the cells was subtracted from the value obtained.
On the technique in general: A flow cytometer gives signals particle by particle.

Experiment [2] concerns the target T1, human neonatal Fc receptor FcRn/β2m, …. The experiment can be described thus: flow cytometry, labelled FcRn on CHO-displayed HSA, pH 7.3.
From the text: as §1

The next experiment has as its target HSA [G572R], soluble (human, UniProt P02768 25-609). In words: SPR, FcRn over immobilised HSA, pH 6.0. In general terms: Surface plasmon resonance follows binding to a sensor surface in real time, without labels.
In experiment [3] the target is HSA [Q522L/A552V], soluble (human, UniProt P02768 25-609). In words: SPR, FcRn over immobilised HSA, pH 6.0.
Experiment [4] concerns the target T2, HSA [A552V/G572R], soluble (human, UniProt P02768 25-609).
T2 construct: also called A522V/G572R
In words: SPR, FcRn over immobilised HSA, pH 6.0.

For experiment [5], the target named is T3, HSA [K573Y], soluble (human, UniProt P02768 25-609). The experiment can be described thus: SPR, FcRn over immobilised HSA, pH 6.0.
Experiment [6] deals with T4, HSA [Q522L/G572R], soluble (human, UniProt P02768 25-609). The experiment can be described thus: SPR, FcRn over immobilised HSA, pH 6.0.
The target of experiment [7] is T2, HSA [A552V/G572R], soluble. The experiment can be described thus: SPR, FcRn over immobilised HSA, pH 6.0, 1:1 model; pH 6.0. The procedure:
(§2) Spot 3 of each flow cell was activated/deactivated and used for reference subtraction. The flow rate of FcRn/β2m was kept constant at 30 μL/min
(§3) A concentration range of 2 to 0.007 μM (pH6.0) and 20 to 0.078 μM (pH7.3) was used and association and dissociation phases were monitored for 180 and 600 seconds respectively.
(§4) Regeneration of the surface was performed as previously described.

Experiment [8] addresses T3, HSA [K573Y], soluble. Described as above. The procedure: as §2, §3, §4
The target in experiment [9] is T4, HSA [Q522L/G572R], soluble. The description is as above. As for the experimental part:
as §2, §3, §4

In the next experiment the target is T5, HSA WT, soluble (human, UniProt P02768 25-609).
T5 construct: also called wild-type HSA; recombinant wild-type HSA
In words: SPR, FcRn over immobilised HSA, pH 6.0.

T1 sequence (P55899 24-297 limits assumed, chain 1 of 2): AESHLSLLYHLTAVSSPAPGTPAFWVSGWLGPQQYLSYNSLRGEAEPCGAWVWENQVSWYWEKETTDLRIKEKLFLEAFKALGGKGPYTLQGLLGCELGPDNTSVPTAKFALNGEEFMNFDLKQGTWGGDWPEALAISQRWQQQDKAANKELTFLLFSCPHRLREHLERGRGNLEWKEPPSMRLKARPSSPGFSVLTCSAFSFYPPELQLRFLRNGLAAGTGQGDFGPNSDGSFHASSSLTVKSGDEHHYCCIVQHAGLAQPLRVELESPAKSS
T1 sequence (P61769 21-119 limits assumed, chain 2 of 2): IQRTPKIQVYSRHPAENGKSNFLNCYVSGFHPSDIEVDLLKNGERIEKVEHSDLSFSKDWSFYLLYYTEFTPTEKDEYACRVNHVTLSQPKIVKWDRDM

B1: HSA [K317E/M329V/K372E/F377I/I388T/A552V/G572R] (clone 3.9), membrane-tethered on CHO cells (other)
chain: DAHKSEVAHRFKDLGEENFKALVLIAFAQYLQQCPFEDHVKLVNEVTEFAKTCVADESAENCDKSLHTLFGDKLCTVATLRETYGEMADCCAKQEPERNECFLQHKDDNPNLPRLVRPEVDVMCTAFHDNEETFLKKYLYEIARRHPYFYAPELLFFAKRYKAAFTECCQAADKAACLLPKLDELRDEGKASSAKQRLKCASLQKFGERAFKAWAVARLSQRFPKAEFAEVSKLVTDLTKVHTECCHGDLLECADDRADLAKYICENQDSISSKLKECCEKPLLEKSHCIAEVENDEMPADLPSLAADFVESKDVCENYAEAKDVFLGVFLYEYARRHPDYSVVLLLRLAKTYETTLEKCCAAADPHECYAEVFDEIKPLVEEPQNLTKQNCELFEQLGEYKFQNALLVRYTKKVPQVSTPTLVEVSRNLGKVGSKCCKHPEAKRMPCAEDYLSVVLNQLCVLHEKTPVSDRVTKCCTESLVNRRPCFSALEVDETYVPKEFNAETFTFHADICTLSEKERQIKKQTALVELVKHKPKATKEQLKAVMDDFVAFVEKCCKADDKETCFAEERKKLVAASQAALGL
notes: not shown: Myc tag and PDGFR transmembrane domain
Take B1: the results for the “fold change to WT” value in [1] and in experiment [2] were 20.8 fold and 1.8 fold, respectively. Besides, the geoMFI in [1] was found to be 34800; in experiment [2], 28.8.

B2: mouse FcRn/β2m, soluble recombinant (receptor)
chain: SETRPPLMYHLTAVSNPSTGLPSFWATGWLGPQQYLTYNSLRQEADPCGAWMWENQVSWYWEKETTDLKSKEQLFLEALKTLEKILNGTYTLQGLLGCELASDNSSVPTAVFALNGEEFMKFNPRIGNWTGEWPETEIVANLWMKQPDAARKESEFLLNSCPERLLGHLERGRRNLEWKEPPSMRLKARPGNSGSSVLTCAAFSFYPPELKFRFLRNGLASGSGNCSTGPNGDGSFHAWSLLEVKRGDEHHYQCQVEHEGLAQPLTVDLDSSARSS
b2m: IQKTPQIQVYSRHPPENGKPNILNCYVTQFHPPHIEIQMLKNGKKIPKVEMSDMSFSKDWSFYILAHTEFTPTETDTYACRVKHASMAEPKTVYWDRDM
notes: Extracellular domain inferred from 'soluble'; also called murineFcRn; murine FcRn/β2m
Turning to B2, the binding result is “no binding (tested: 2 µM)” in the experiment with HSA [G572R], soluble; “no binding (tested: 2 µM)” in experiment [3]; “no binding (tested: 2 µM)” in experiment [4]; “no binding (tested: 2 µM)” with HSA [K573Y], soluble [5]; “no binding (tested: 2 µM)” in experiment [6].

B3: rat FcRn/β2m, soluble recombinant (receptor)
chain: AEPRLPLMYHLAAVSDLSTGLPSFWATGWLGAQQYLTYNNLRQEADPCGAWIWENQVSWYWEKETTDLKSKEQLFLEAIRTLENQINGTFTLQGLLGCELAPDNSSLPTAVFALNGEEFMRFNPRTGNWSGEWPETDIVGNLWMKQPEAARKESEFLLTSCPERLLGHLERGRQNLEWKEPPSMRLKARPGNSGSSVLTCAAFSFYPPELKFRFLRNGLASGSGNCSTGPNGDGSFHAWSLLEVKRGDEHHYQCQVEHEGLAQPLTVDLDSPARSS
b2m: IQKTPQIQVYSRHPPENGKPNFLNCYVSQFHPPQIEIELLKNGKKIPNIEMSDLSFSKDWSFYILAHTEFTPTETDVYACRVKHVTLKEPKTVTWDRDM
notes: Extracellular domain inferred from 'soluble'
Take B3: the Kd – broadly, the constant that tells how readily two partners part at equilibrium – amounted to 4.82 µM in experiment [7]; 989 nM in the experiment with HSA [K573Y], soluble [8]; 4.75 µM in experiment [9]. Further, the binding result with HSA [G572R], soluble is recorded as “no binding (tested: 2 µM)”; in [3] it was “no binding (tested: 2 µM)”; with HSA WT, soluble, “no binding (tested: 2 µM)”.

Values taken from US20200325209A1 (CSL, published 2020).
